Reference: patent US20180334702A1 (SYSMEX, published 2018)
Like-named read-outs stand apart in the source and are kept apart here. No end group written: not given here. *: point of attachment. aminohexane = linker joining biotin to the N-terminal residue; Biotin = O=C1N[C@H]2[C@H](CS[C@H]2CCCCC(=O)*)N1

Assays:
Assay in all cases: cell-based or functional assay
CDK2/cyclin E1 [1] = biological target: T1, CDK2/cyclin E1 (UniProt P24941 1-298; P24864 1-410)
CDK1/cyclin A2 [2] = biological target: T2, CDK1/cyclin A2 (UniProt P06493 1-297; P20248 1-432, limits assumed)
T2 sequence (P06493 whole entry, chain 1 of 2): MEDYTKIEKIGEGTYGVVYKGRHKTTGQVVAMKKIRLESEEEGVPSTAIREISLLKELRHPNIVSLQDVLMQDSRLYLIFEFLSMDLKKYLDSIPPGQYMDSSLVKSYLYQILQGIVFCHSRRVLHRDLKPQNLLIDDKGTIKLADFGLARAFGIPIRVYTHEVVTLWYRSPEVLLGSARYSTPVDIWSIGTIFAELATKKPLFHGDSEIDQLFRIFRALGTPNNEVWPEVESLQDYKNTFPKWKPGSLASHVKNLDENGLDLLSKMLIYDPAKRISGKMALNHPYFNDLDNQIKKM
T2 sequence (P20248 whole entry, chain 2 of 2): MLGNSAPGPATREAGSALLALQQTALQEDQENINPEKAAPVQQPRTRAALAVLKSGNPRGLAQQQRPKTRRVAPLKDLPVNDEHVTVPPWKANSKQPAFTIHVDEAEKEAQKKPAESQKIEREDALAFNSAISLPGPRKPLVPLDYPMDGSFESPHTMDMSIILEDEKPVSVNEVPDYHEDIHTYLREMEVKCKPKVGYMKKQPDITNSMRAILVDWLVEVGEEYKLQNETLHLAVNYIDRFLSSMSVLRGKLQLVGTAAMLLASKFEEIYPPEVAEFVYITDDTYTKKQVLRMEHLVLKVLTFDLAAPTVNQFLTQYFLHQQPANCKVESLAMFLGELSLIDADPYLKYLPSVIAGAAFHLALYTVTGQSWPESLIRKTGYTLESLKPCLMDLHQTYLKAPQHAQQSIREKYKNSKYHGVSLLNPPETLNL

CDK6/cyclin D3 [3] = biological target: T3, CDK6/cyclin D3 (UniProt Q00534 1-326; P30281 1-292)
T3 sequence (Q00534 whole entry, chain 1 of 2): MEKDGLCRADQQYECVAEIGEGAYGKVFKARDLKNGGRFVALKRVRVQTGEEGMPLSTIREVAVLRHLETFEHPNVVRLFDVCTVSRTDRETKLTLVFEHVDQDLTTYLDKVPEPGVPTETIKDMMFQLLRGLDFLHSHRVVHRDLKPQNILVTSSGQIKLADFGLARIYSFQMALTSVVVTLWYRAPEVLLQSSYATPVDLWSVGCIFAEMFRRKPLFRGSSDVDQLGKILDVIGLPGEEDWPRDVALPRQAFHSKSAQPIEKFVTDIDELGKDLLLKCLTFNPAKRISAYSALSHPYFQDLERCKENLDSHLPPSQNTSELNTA
T3 sequence (P30281 whole entry, chain 2 of 2): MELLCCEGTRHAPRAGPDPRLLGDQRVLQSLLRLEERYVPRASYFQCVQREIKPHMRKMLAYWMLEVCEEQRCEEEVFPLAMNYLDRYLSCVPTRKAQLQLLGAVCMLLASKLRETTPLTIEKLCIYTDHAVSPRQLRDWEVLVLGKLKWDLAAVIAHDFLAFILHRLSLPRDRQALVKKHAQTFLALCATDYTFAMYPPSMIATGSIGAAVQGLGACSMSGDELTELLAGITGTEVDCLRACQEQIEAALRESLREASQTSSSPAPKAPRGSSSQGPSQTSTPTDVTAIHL

CDK4/cyclin D3 [4] = biological target: T4, CDK4/cyclin D3 (UniProt P11802 1-303; P30281 1-292)
T4 sequence (P11802 whole entry, chain 1 of 2): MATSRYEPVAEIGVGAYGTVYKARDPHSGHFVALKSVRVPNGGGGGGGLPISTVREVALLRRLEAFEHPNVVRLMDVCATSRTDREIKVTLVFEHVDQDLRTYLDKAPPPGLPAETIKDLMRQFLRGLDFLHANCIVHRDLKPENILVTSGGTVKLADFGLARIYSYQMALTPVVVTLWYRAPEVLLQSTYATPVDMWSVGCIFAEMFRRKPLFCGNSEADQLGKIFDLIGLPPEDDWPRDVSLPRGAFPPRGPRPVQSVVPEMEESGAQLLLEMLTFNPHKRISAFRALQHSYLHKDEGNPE
T4 sequence (P30281 whole entry, chain 2 of 2): as the sequence (P30281 whole entry, chain 2 of 2) above

CDK2/cyclin E1 [5] = biological target: T1, CDK2/cyclin E1; remark: listed apart in the source
CDK1/cyclin A2 [6] = biological target: T2, CDK1/cyclin A2; remark: listed apart in the source
CDK6/cyclin D3 [7] = biological target: T3, CDK6/cyclin D3; remark: listed apart in the source
CDK4/cyclin D3 [8] = biological target: T4, CDK4/cyclin D3; remark: listed apart in the source
CDK2/cyclin E1 [9] = biological target: T1, CDK2/cyclin E1; remark: listed apart in the source
CDK1/cyclin A2 [10] = biological target: T2, CDK1/cyclin A2; remark: listed apart in the source
CDK6/cyclin D3 [11] = biological target: T3, CDK6/cyclin D3; remark: listed apart in the source
CDK4/cyclin D3 [12] = biological target: T4, CDK4/cyclin D3; remark: listed apart in the source
CDK2/cyclin E1 [13] = biological target: T1, CDK2/cyclin E1; remark: listed apart in the source
CDK4/cyclin D3 [14] = biological target: T4, CDK4/cyclin D3; remark: listed apart in the source
CDK1/cyclin A2 [15] = biological target: T2, CDK1/cyclin A2; remark: listed apart in the source
CDK2/cyclin E1 [16] = biological target: T1, CDK2/cyclin E1; remark: listed apart in the source
CDK1/cyclin A2 [17] = biological target: T2, CDK1/cyclin A2; remark: listed apart in the source
CDK4/cyclin D3 [18] = biological target: T4, CDK4/cyclin D3; remark: listed apart in the source

Binder: {Biotin-aminohexane}-GMPWSPNPWWRGGGG [Polypeptide 1]
- Luminescence intensity (CDK2/cyclin E1 [1]): 9.92e+07
- Luminescence intensity (CDK1/cyclin A2 [2]): 9.32e+07
- Luminescence intensity (CDK6/cyclin D3 [3]): 1.22e+08
- Luminescence intensity (CDK4/cyclin D3 [4]): 1.01e+08
- relative value of the luminescence intensity (Comparative Polypeptide 2 = 1.00) (CDK2/cyclin E1 [5]): 6.12 relative value
- relative value of the luminescence intensity (Comparative Polypeptide 2 = 1.00) (CDK1/cyclin A2 [6]): 2.24 relative value
- relative value of the luminescence intensity (Comparative Polypeptide 2 = 1.00) (CDK6/cyclin D3 [7]): 7.06 relative value
- relative value of the luminescence intensity (Comparative Polypeptide 2 = 1.00) (CDK4/cyclin D3 [8]): 18.6 relative value

Binder: {Biotin-aminohexane}-GAPWSPDPWDDGGGG [Polypeptide 28]
- relative reactivity (Polypeptide 3 = 100%) (CDK2/cyclin E1 [9]): 13%
- relative reactivity (Polypeptide 3 = 100%) (CDK1/cyclin A2 [10]): 4%
- relative reactivity (Polypeptide 3 = 100%) (CDK6/cyclin D3 [11]): 25%
- relative reactivity (Polypeptide 3 = 100%) (CDK4/cyclin D3 [12]): 50%

Binder: {Biotin-aminohexane}-PYKISEGLPTPTKMTPRSRI [Comparative Polypeptide 1]
- Luminescence intensity (CDK2/cyclin E1 [1]): 1.04e+08
- Luminescence intensity (CDK1/cyclin A2 [2]): 6.76e+07
- Luminescence intensity (CDK6/cyclin D3 [3]): 7.42e+06
- Luminescence intensity (CDK4/cyclin D3 [4]): 811000
- relative value of the luminescence intensity (Comparative Polypeptide 2 = 1.00) (CDK2/cyclin E1 [5]): 6.44 relative value
- relative value of the luminescence intensity (Comparative Polypeptide 2 = 1.00) (CDK1/cyclin A2 [6]): 1.63 relative value
- relative value of the luminescence intensity (Comparative Polypeptide 2 = 1.00) (CDK6/cyclin D3 [7]): 0.43 relative value
- relative value of the luminescence intensity (Comparative Polypeptide 2 = 1.00) (CDK4/cyclin D3 [8]): 0.15 relative value

Binder: {Biotin-aminohexane}-GGGRAAPLSPIDHIPD [Polypeptide 25]
- relative luminescence intensity (CDK6 = 100%) (CDK2/cyclin E1 [13]): 62%
- relative luminescence intensity (CDK6 = 100%) (CDK4/cyclin D3 [14]): 40%

Binder: {Biotin-aminohexane}-GGGRAAPLSPDPHIPD [Polypeptide 24]
- relative luminescence intensity (CDK6 = 100%) (CDK2/cyclin E1 [13]): 54%
- relative luminescence intensity (CDK6 = 100%) (CDK4/cyclin D3 [14]): 54%

Binder: {Biotin-aminohexane}-RRRFRPASPLRGPPK [Comparative Polypeptide 2]
- relative luminescence intensity (CDK6 = 100%) (CDK2/cyclin E1 [13]): 321%
- relative luminescence intensity (CDK6 = 100%) (CDK1/cyclin A2 [15]): 318%
- relative luminescence intensity (CDK6 = 100%) (CDK4/cyclin D3 [14]): 245%
- Luminescence intensity (CDK2/cyclin E1 [1]): 1.62e+07
- Luminescence intensity (CDK1/cyclin A2 [2]): 4.15e+07
- Luminescence intensity (CDK6/cyclin D3 [3]): 1.73e+07
- Luminescence intensity (CDK4/cyclin D3 [4]): 5.44e+06
- relative luminescence intensity (CDK6 = 100%) (CDK2/cyclin E1 [16]): 198%
- relative luminescence intensity (CDK6 = 100%) (CDK1/cyclin A2 [17]): 606%
- relative luminescence intensity (CDK6 = 100%) (CDK4/cyclin D3 [18]): 51%
- relative value of the luminescence intensity (Comparative Polypeptide 2 = 1.00) (CDK2/cyclin E1 [5]): 1 relative value
- relative value of the luminescence intensity (Comparative Polypeptide 2 = 1.00) (CDK1/cyclin A2 [6]): 1 relative value
- relative value of the luminescence intensity (Comparative Polypeptide 2 = 1.00) (CDK6/cyclin D3 [7]): 1 relative value
- relative value of the luminescence intensity (Comparative Polypeptide 2 = 1.00) (CDK4/cyclin D3 [8]): 1 relative value

Binder: {Biotin-aminohexane}-GGGKAPLTPKDAD [Polypeptide 22]
- relative luminescence intensity (CDK6 = 100%) (CDK2/cyclin E1 [13]): 15%
- relative luminescence intensity (CDK6 = 100%) (CDK1/cyclin A2 [15]): 27%
- relative luminescence intensity (CDK6 = 100%) (CDK4/cyclin D3 [14]): 46%

Binder: {Biotin-aminohexane}-GGGKAPLTPLDAD [Polypeptide 23]
- relative luminescence intensity (CDK6 = 100%) (CDK4/cyclin D3 [14]): 37%

Binder: {Biotin-aminohexane}-LVEMTGLSPRDIRVD [Polypeptide 26]
- relative luminescence intensity (CDK6 = 100%) (CDK1/cyclin A2 [15]): 295%
- relative luminescence intensity (CDK6 = 100%) (CDK4/cyclin D3 [14]): 18%

Binder: {Biotin-aminohexane}-GAPWSPNDWWDGGGG [Polypeptide 27]
- relative reactivity (Polypeptide 3 = 100%) (CDK2/cyclin E1 [9]): 20%
- relative reactivity (Polypeptide 3 = 100%) (CDK1/cyclin A2 [10]): 13%
- relative reactivity (Polypeptide 3 = 100%) (CDK6/cyclin D3 [11]): 33%
- relative reactivity (Polypeptide 3 = 100%) (CDK4/cyclin D3 [12]): 37%

Binder: {Biotin-aminohexane}-PYKISEGLPTPTKMTPRSRI-NH2 [Comparative Polypeptide 3]
- relative luminescence intensity (CDK6 = 100%) (CDK2/cyclin E1 [16]): 766%
- relative luminescence intensity (CDK6 = 100%) (CDK1/cyclin A2 [17]): 678%
- relative luminescence intensity (CDK6 = 100%) (CDK4/cyclin D3 [18]): 7%

Binder: {Biotin-aminohexane}-RRRFRPASPLDGPPD [Polypeptide 18]
- relative luminescence intensity (CDK6 = 100%) (CDK1/cyclin A2 [15]): 22%
- relative luminescence intensity (CDK6 = 100%) (CDK4/cyclin D3 [14]): 14%

Binder: {Biotin-aminohexane}-GAPWSPNPWWRGGGG [Polypeptide 3]
- relative reactivity (Polypeptide 3 = 100%) (CDK2/cyclin E1 [9]): 100%
- relative reactivity (Polypeptide 3 = 100%) (CDK1/cyclin A2 [10]): 100%
- relative reactivity (Polypeptide 3 = 100%) (CDK6/cyclin D3 [11]): 100%
- relative reactivity (Polypeptide 3 = 100%) (CDK4/cyclin D3 [12]): 100%

Binder: {Biotin-aminohexane}-LVEMTGLSPRVIRVW [Comparative Polypeptide 7]
- relative luminescence intensity (CDK6 = 100%) (CDK2/cyclin E1 [13]): 10%
- relative luminescence intensity (CDK6 = 100%) (CDK1/cyclin A2 [15]): 1150%
- relative luminescence intensity (CDK6 = 100%) (CDK4/cyclin D3 [14]): 55%

Binder: {Biotin-aminohexane}-GGGRAAPLSPIPHIPR [Comparative Polypeptide 6]
- relative luminescence intensity (CDK6 = 100%) (CDK2/cyclin E1 [13]): 44%
- relative luminescence intensity (CDK6 = 100%) (CDK1/cyclin A2 [15]): 119%
- relative luminescence intensity (CDK6 = 100%) (CDK4/cyclin D3 [14]): 190%

Binder: {Biotin-aminohexane}-PYKISEGLPTPAKMAPRSRI-NH2 [Comparative Polypeptide 4]
- relative luminescence intensity (CDK6 = 100%) (CDK2/cyclin E1 [16]): 2680%
- relative luminescence intensity (CDK6 = 100%) (CDK1/cyclin A2 [17]): 3250%

Binder: {Biotin-aminohexane}-GGGKAPLTPKKAK [Comparative Polypeptide 5]
- relative luminescence intensity (CDK6 = 100%) (CDK2/cyclin E1 [13]): 156%
- relative luminescence intensity (CDK6 = 100%) (CDK1/cyclin A2 [15]): 143%
- relative luminescence intensity (CDK6 = 100%) (CDK4/cyclin D3 [14]): 56%
